Assay results from paper PMC7439463.
Each block holds one substance with its values, some of them ahead of it.

Tests used:
[1] = biological target: tag-free BcsRQ complex (E. coli 1094) (UniProt P37655); test: SEC-MALS; purified tag-free BcsERQ^FL complex on Superose 6 Increase 10/300 GL, with Cymal-6 detergent
[2] = biological target: BcsQ (tag-free) (E. coli 1094) (UniProt P37655); test: SEC-MALS; purified sample on Superdex 200 Increase 10/300 GL in its gel filtration buffer (20 mM HEPES pH 8.0, 120 mM NaCl, 2 mM DTT for BcsRQ), 0.5 ml/min
[3] = biological target: BcsE^217-523 (purified, tag-free) (E. coli 1094) (UniProt P37657); test: ITC; apparent constants; Microcal VP-ITC, 20 C; tag-free BcsRQ (180 uM, syringe) titrated into BcsE^217-523 (18 uM, cuvette); 20 mM HEPES pH 8.0, 100 mM NaCl, 2 mM DTT; single-site binding model

stoichiometry N (BcsE:BcsR:BcsQ, printed as 2:2:2) [1]: 1
Substance: BcsE^FL (tag-free) (from UniProt P37657 1-523) (natural protein)

stoichiometry N (BcsR:BcsQ, printed as 2:2) [2]: 1
Substance: BcsR (His tag cleaved, in tag-free BcsRQ) (natural protein)

Kd [3]: 16 nM | stoichiometry N [3]: 0.95
Substance: tag-free BcsRQ complex (from UniProt P37655 1-242)
